T1: MdDOF3.6 (Malus domestica, UniProt A0A498JFY8 1-358)
T1 sequence: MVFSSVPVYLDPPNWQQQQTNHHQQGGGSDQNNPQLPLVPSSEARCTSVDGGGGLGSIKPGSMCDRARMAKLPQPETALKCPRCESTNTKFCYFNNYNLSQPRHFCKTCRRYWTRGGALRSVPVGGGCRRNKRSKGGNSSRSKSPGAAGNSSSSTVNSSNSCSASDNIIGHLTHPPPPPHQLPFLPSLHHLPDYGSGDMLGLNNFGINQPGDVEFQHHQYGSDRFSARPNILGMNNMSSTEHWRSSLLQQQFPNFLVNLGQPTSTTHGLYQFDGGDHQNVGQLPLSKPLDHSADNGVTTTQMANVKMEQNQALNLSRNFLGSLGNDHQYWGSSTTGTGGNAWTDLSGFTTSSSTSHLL


Assays:
[1] = biological target: T1, MdDOF3.6; test: EMSA; not stated (EMSA according to cited protocol; biotin-labelled probes, Beyotime kit); settings: protein: recombinant; tags: His; label: biotin
[2] = biological target: T1, MdDOF3.6; test: EMSA; mutated probe; shift disappeared; not stated (EMSA according to cited protocol; biotin-labelled probes, Beyotime kit); settings: protein: recombinant; tags: His

Binder	binding result [1]	binding result [2]
MdCKX7 promoter P4 probe (dsDNA) DNA 1: GATACTATTCACTTTACCCTTTATTCTGTCCTTATC DNA 2: GATAAGGACAGAATAAAGGGTAAAGTGAATAGTATC	binds	–
MdCKX7 promoter P4 mutant probe (dsDNA) DNA 1: GATACTAAAAAAAAAAAAAAAAAAAAAATCCTTATC DNA 2: GATAAGGATTTTTTTTTTTTTTTTTTTTTTAGTATC	–	no binding

Reference: article PMC12261083, “Two DNA-binding One Zinc Finger transcription factors, MdCDOF3 and MdDOF3.6, accelerate leaf senescence by activating cytokinin oxidase MdCKX7 in response to sorbitol signaling in apple”
